No end group written: not given here.
Columns and labels:
[1] = Aβ uptake by liver and kidney, multiple-time regression analysis; format: in vivo, CD-1 mice; conditions: IV, mean ± SEM, n = 7–10 per group
Procedure: All animal protocols were performed in an Association for Assessment and Accreditation of Laboratory Animal Care accredited facility and approved by the animal committee of the VA and St Louis University Medical Centers. Male CD-1 mice were purchased from Charles River and kept on a 12/12 hour light/dark cycle with food and water freely available. Mice at 6–8 weeks of age were treated with 3 intraperitoneal (IP) injections of 3 mg/kg LPS from Salmonella typhimurium (Sigma, St. Louis, MO, USA) dissolved in sterile normal saline over a 24-hour period as previously described. Briefly, the first injection was given in the morning, and the second and third injections were given at 6 and 24 hours following the first injection, respectively. All mice were studied at 28 hours following the first injection. […] No mice died as a result of this treatment regimen. A total of 225 mice were used in this study: 90 were used for detection of oxidative modifications to LRP-1 and Pgp measurement, 30 for LRP-1 measurement, 44 for measurement of Aβ and a2M vascular sequestration, 20 for CSF bulk flow measurement, 21 for measurement of peripheral Aβ clearance, and 20 for primary endothelial cell culture.
(§1) In BSA/lactated Ringer’s solution 3 × 10^5 CPM of ^131I-Aβ and ^125I-albumin were prepared and injected together into the jugular vein of mice treated with LPS or saline. The liver, the left kidney, and blood from the carotid artery were collected at 1, 2, 5, 10, and 20 minutes. Blood was allowed to clot, spun at 5,000 g to separate serum from blood cells, and 50 μl serum was counted along with harvested tissues from liver and kidney in a gamma counter. The rate of I-Aβ tissue uptake was determined using multiple-time regression analysis. For this analysis, experimental clock time was re-expressed as exposure time to correct for clearance of I-Aβ from the blood. Exposure time was calculated from the formula:
(5) Exposuretime=∫0tCpttdt/Cpt
where t equals experimental clock time, Cp represents the level of radioactivity in the serum over time and Cpt is the level of radioactivity in the serum at time t. Tissue/serum ratios were then calculated from the following formula:
(6) Tissue/serumratio=serumvolumetissueCPM/tissueweightserumCPM
To correct for alterations in vascular space and/or vascular permeability which occur with LPS administration, tissue/serum ratios for I-albumin were subtracted from those for I-Aβ. The corrected tissue/serum ratios were plotted against exposure time calculated for Aβ, and the unidirectional influx constant determined from the slope of the linear portion of the curve.

[2] = Clearance of IV-injected I-Aβ from serum; format: in vivo, CD-1 mice; conditions: linear regression, n = 7–10 per group
Procedure: All animal protocols were performed in an Association for Assessment and Accreditation of Laboratory Animal Care accredited facility and approved by the animal committee of the VA and St Louis University Medical Centers. Male CD-1 mice were purchased from Charles River and kept on a 12/12 hour light/dark cycle with food and water freely available. Mice at 6–8 weeks of age were treated with 3 intraperitoneal (IP) injections of 3 mg/kg LPS from Salmonella typhimurium (Sigma, St. Louis, MO, USA) dissolved in sterile normal saline over a 24-hour period as previously described. […]
as §1, with “The liver, the left kidney, and blood from the carotid artery were collected at 1, 2, 5, 10, and 20 minutes.” left out, “formula: […]” for “formula:”
Serum clearance was calculated by plotting the log serum CPM/50 μl versus experimental clock time. […]

[3] = test system: murine BBB; conditions: compared with human Aβ1-42; cited from earlier work
Text: In this study we have shown that peripheral administration of LPS inhibits CSF bulk flow, central and peripheral clearance of Aβ, and increases vascular sequestration of Aβ. […] Al ...

[4] = LPS-treated mice (3 x 3 mg/kg IP, studied at 28 h), corrected for I-albumin

I-Aβ: Murine Aβ1-42 (Bachem) radioactively labeled with 125I or 131I by the chloramine-T method (DAEFGHDSGFEVRHQKLVFFAEDVGSNKGAIIGLMVGGVVIA; also: 125I or 131I radiolabel, residue not given here; UniProt P12023 672-713, looked up)
unidirectional influx rate of Aβ into kidney (Ki) [1, 4]: 0.5608 ± 3.859 µL/g/min | unidirectional influx rate of Aβ into liver (Ki) [1, 4]: 8.356 ± 6.433 µL/g/min | unidirectional influx rate of Aβ into kidney (Ki) ([1]; saline-treated mice, corrected for I-albumin): 41.26 ± 10.46 µL/g/min | unidirectional influx rate of Aβ into liver (Ki) ([1]; saline-treated mice, tissue/serum ratio corrected for I-albumin vs exposure time): 34.67 ± 3.444 µL/g/min | half-life in serum ([2]; LPS-treated mice (3 x 3 mg/kg IP at 0, 6, 24 h, studied at 28 h), IV injection, serum at 1-20 min): 8.4 min | half-life in serum ([2]; saline-treated mice, IV (jugular vein) injection, serum at 1, 2, 5, 10, 20 min, log serum CPM/50 μl vs time): 4 min

murine Aβ1-42: Murine amyloid beta 1-42 purchased from Bachem (DAEFGHDSGFEVRHQKLVFFAEDVGSNKGAIIGLMVGGVVIA; Amyloid-beta protein 42; UniProt P12023 672-713, looked up)
rate of clearance across the murine BBB [3]: cleared at a faster rate across the murine BBB than human Aβ1-42

Source: paper PMC3410805, “Lipopolysaccharide impairs amyloid beta efflux from brain: altered vascular sequestration, cerebrospinal fluid reabsorption, peripheral clearance and transporter function at the blood–brain barrier” (Journal of Neuroinflammation, 2012)
